Read-outs that look alike come from different tables or passages of the source.
How the values were obtained:
[1] = target: T1, human CD33 on primary human monocyte-derived dendritic cells (human, UniProt P20138 18-364); assay: cell-based or functional assay
human CD33 [2] = target: T2, human CD33 (human, UniProt P20138 18-259, limits assumed); assay: SPR (BIAcore), Fab over CD33 on C1 chip
T2 construct: Human CD33 immobilized on the BLI sensor tip or the BIAcore C1 chip; also called Siglec-3
Procedure: The affinity parameters for 10 of the 88 humanized antibodies (AB-H1, AB-H3, AB-H6, AB-H11, AB-H22, AB-H24, AB-H26, AB-H63, AB-H64, and AB-H71) were measured in a separate experiment by a more sensitive technique, surface plasmon resonance (BIAcore), and compared to Chimeric Ab and Chimeric Ab #2. BIAcore measurements were performed as follows: human CD33 was immobilized on the surface of a C1 chip, and Fabs were injected for 300 s to monitor association, followed by a 900 s flow in running buffer to monitor dissociation. The Fabs were measured at 5 concentrations: a high concentration of 27 nM and 3-fold serial dilutions.

[3] = target: T1, human CD33 on primary human …; assay: cell-based or functional assay; remark: listed apart in the source
[4] = target: T1, human CD33 on primary human …; assay: cell-based or functional assay; remark: listed apart in the source
human CD33 [5] = target: T2, human CD33; assay: BLI (ForteBio), Fab 100 nM on immobilized CD33
Procedure: (§1) The affinities (KD) of the humanized antibodies for human CD33 were measured for each antibody by BioLayer Interferometry in a ForteBio assay according to standard techniques (Estep et al. (2013) MAbs 5(2): 270-8). […] The assay was carried out at room temperature.
The affinities of AB-H14 and its affinity-matured variants (Table 15) and AB-H63 and its affinity-matured variants (Table 16), for human CD33 were measured by Fortebio assay according to the method described in Example 1 above.

human CD33 [6] = target: T2, human CD33; assay: BLI (ForteBio), Fab 100 nM on immobilized CD33; remark: listed apart in the source
Procedure: as §1
The affinity parameters of two of the antibodies, 64.1.2 and 64.1.8, were measured in a separate experiment by BIAcore, where they were directly compared to the parental antibody, AB-64.1, the parental humanized antibody, AB-H64, and the Chimeric Ab.

[7] = target: T1, human CD33 on primary human …; assay: cell-based or functional assay; remark: listed apart in the source

T2 sequence (P20138 18-259 limits assumed): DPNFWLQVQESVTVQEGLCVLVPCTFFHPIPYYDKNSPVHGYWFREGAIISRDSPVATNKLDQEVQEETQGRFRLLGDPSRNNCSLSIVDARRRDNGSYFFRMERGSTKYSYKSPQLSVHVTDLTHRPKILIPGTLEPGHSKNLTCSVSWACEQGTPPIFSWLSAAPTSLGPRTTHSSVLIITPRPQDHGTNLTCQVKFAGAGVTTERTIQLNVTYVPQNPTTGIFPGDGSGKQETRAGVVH
T1 sequence (P20138 18-364): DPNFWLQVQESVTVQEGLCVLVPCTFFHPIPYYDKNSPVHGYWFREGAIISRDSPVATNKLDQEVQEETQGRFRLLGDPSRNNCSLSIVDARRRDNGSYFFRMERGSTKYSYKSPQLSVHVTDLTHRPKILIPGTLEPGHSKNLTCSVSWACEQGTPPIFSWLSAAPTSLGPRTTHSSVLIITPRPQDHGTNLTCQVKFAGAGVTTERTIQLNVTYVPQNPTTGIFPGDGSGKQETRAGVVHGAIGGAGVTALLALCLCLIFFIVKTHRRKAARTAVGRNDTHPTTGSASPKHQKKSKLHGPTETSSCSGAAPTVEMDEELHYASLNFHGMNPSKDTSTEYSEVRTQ

| Binder | Maximal Downregulation (% CD33 remaining) [4] [%] | Receptor downregulation (EC50) [4] [nM] | Fold affinity improvement over parental Ab (AB-H14) (human CD33 [5]) [fold] | Kd (human CD33 [5]) [nM] | koff (human CD33 [5]) [s⁻¹] | kon (human CD33 [5]) [M⁻¹ s⁻¹] | Kd (human CD33 [6]) [nM] | Receptor downregulation (% remaining at 0.16 µg/mL antibody) [7] [%] | other results |
| --- | --- | --- | --- | --- | --- | --- | --- | --- | --- |
| Chimeric Ab #2 (antibody, V domains shown, Chimeric Ab with a VH-FR3 mutation that removes the predicted N-glycosylation site) VH: EVQLQQSGPELVKPGASVKISCKASGYTFTDYNLHWVKLSHGKSLEWIGFIYPSNGITGYNQKFKNKATLTVDTSSSTAYMELRSLTSEDSAVYYCARSTVDYFDYWGQGTTLTVSS VL: DIVLTQSPASLAVSLGQRATMSCRASQSVSTSTYSYMHWYQQKPGQPPKLLIKYASNLESGVPARFSGSGSGTDFTLNIHPVEEEDTATYYCQHSWEIPLTFGAGTKLELK | – | – | – | – | – | – | – | – | Maximal Downregulation (% CD33 remaining) [1]: 23.2%; Receptor downregulation (EC50) [1]: 0.119 nM; Fold Change to Chimeric Ab (human CD33 [2]): 0.56 fold; Kd (human CD33 [2]): 2.89 nM; koff (human CD33 [2]): 0.00286 s⁻¹; kon (human CD33 [2]): 991000 M⁻¹ s⁻¹; Maximal Downregulation (% CD33 remaining) [3]: 23.2%; Receptor downregulation (EC50) [3]: 0.119 nM |
| AB-14.4 (antibody, V domains shown) VH: QVQLVQSGAEVKKPGASVKVSCKASGYTFTDYNYHWVRQAPGQGLEWIGFIYPSNGITGYAQKFQGRVTMTVDTSTSTVYMELSSLRSEDTAVYYCADSTVDYFDYWGQGTLVTVSS VL: DIQMTQSPSSLSASVGDRVTITCRASQDVSTSTYSYMHWYQQKPGKAPKLLIKYVSNLESGVPSRFSGSGSGTDFTLTISSLQPEDFATYYCQHSWEIPLTFGQGTKLEIK | 27.6 | 0.0582 | 13 | 0.224 | 0.0002 | 895000 | – | – | – |
| AB-64.1.4 (antibody, V domains shown, Variant of AB-64.1) VH: QVQLVQSGAEVKKPGASVKISCKASGYTFTDYNLHWVRQAPGQGLEWIGFIYPSNGITGYAQKFQGRATLTVDTSTSTAYMELSSLRSEDTAVYYCARSDVDYFDYWGQGTLLTVSS VL: DIVLTQSPDSLAVSLGERATINCRASQSVSTSTYSYMHWYQQKPGQPPKLLIKYASNLESGVPDRFSGSGSGTDFTLTISSLQAEDVAVYYCQHSWEIPLTFGQGTKLEIK | – | – | – | – | – | – | 0.639 | 38 | – |
| AB-64.1.3 (antibody, V domains shown, Variant of AB-64.1) VH: QVQLVQSGAEVKKPGASVKISCKASGYTFTDYNLHWVRQAPGQGLEWIGFIYPSNVITGYAQKFQGRATLTVDNSTSTAYMELSSLRSEDTAVYYCARSDVDYFDYWGQGTLLTVSS VL: DIVLTQSPDSLAVSLGERATINCRASQSVSTSTYSYMHWYQQKPGQPPKLLIKYASNLESGVPDRFSGSGSGTDFTLTISSLQAEDVAVYYCQHSWEIPLTFGQGTKLEIK | – | – | – | – | – | – | 0.647 | 38.5 | – |
| AB-14.8 (antibody, V domains shown) VH: QVQLVQSGAEVKKPGASVKVSCKASGYTFTDYNYHWVRQAPGQGLEWIGFIYPSNGITGYAQKFQGRVTMTVDTSTSTVYMELSSLRSEDTAVYYCARSDVDYFDYWGQGTLVTVSS VL: DIQMTQSPSSLPASVGDRVTITCRASQSVGTSTYSYMHWYQQKPGKAPKLLIKYASNLGSGVPSRFSGSGSGTDFTLTISSLQPEDFATYYCQHSWEIPLTFGQGTKLEIK | 21.2 | 0.0234 | 13.6 | 0.214 | 0.0002 | 935000 | – | – | – |
| AB-14.6 (antibody, V domains shown) VH: QVQLVQSGAEVKKPGASVKVSCKASGYTFTDYNYHWVRQAPGQGLEWIGFIYPSNGITGYAQKFQGRVTMTVDTSTSTVYMELSSLRSEDTAVYYCARSDVDYFDYWGQGTLVTVSS VL: DIQMTQSPSSLSASVGDRVTITCRASQSVGTSTYSYMHWYQQKPGKAPKLLIKYASALESGVPSRFSGSGSGTDFTLTISSLQPEDFATYYCQHSWEIPLTFGQGTKLEIK | 24 | 0.0324 | 9.83 | 0.295 | 0.000264 | 894000 | – | – | – |
| AB-14.7 (antibody, V domains shown) VH: QVQLVQSGAEVKKPGASVKVSCKASGYTFTDYNYHWVRQAPGQGLEWIGFIYPSNGITGYAQKFQGRVTMTVDTSTSTVYMELSSLRSEDTAVYYCARSDVDYFDYWGQGTLVTVSS VL: DIQMTQSPSSLSASVGDRVTITCRASQSVGTSTYSYMHWYQQKPGKAPKLLIKYASNLESGVPSRFSGSGSGTDFTLTISSLQPEDFATYYCQHSWEIPLTFGQGTKLEIK | 23.4 | 0.0351 | 11.8 | 0.246 | 0.0002 | 813000 | – | – | – |
| AB-14.10 (antibody, V domains shown) VH: QVQLVQSGAEVKKPGASVKVSCKASGYTFTDYNYHWVRQAPGQGLEWIGFIYPSNGITGYAQKFQGRVTMTVDTSTSTVYMELSSLRSEDTAVYYCARSDVDYFDYWGQGTLVTVSS VL: DIQMTQSPSSLSASVGDRVTITCRASQSVSASTYSYMHWYQQKPGKAPKLLIKYASNLESGVPSRFSGSGSGTDFTLTISSLQPEDLATYYCQHSWEIPLTFGQGTKLEIK | 20.9 | 0.0494 | 13.2 | 0.221 | 0.0002 | 906000 | – | – | – |
| AB-14.11 (antibody, V domains shown) VH: QVQLVQSGAEVKKPGASVKVSCKASGYTFTDYNYHWVRQAPGQGLEWIGFIYPSNGITGYAQKFQGRVTMTVDTSTSTVYMELSSLRSEDTAVYYCARSSVDYFDYWGQGTLVTVSS VL: DIQMTQSPSSLSASVGDRVTITCRASQDVSTSTYSYMHWYQQKPGKAPKLLIKYVSNLESGVPSRFSGSGSGTDFTLTISSLQPEDFATYYCQHSWEIPLTFGQGTKLEIK | 27.5 | 0.047 | 14.1 | 0.205 | 0.0002 | 974000 | – | – | – |
| AB-14.9 (antibody, V domains shown) VH: QVQLVQSGAEVKKPGASVKVSCKASGYTFTDYNYHWVRQAPGQGLEWIGFIYPSNGITGYAQKFQGRVTMTVDTSTSTVYMELSSLRSEDTAVYYCARSDVDYFDYWGQGTLVTVSS VL: GIQMTQSPSSLSASVGDRVTITCRASQSVGTSTYSYMHWYQQKPGKAPKLLIKYAVNLESGVPSRFSGSGSGTDFTLTISSLQPEDFATYYCQHSWEIPLTFGQGTKLEIK | 26.1 | 0.0399 | 13.4 | 0.217 | 0.0002 | 921000 | – | – | – |
| AB-64.1.6 (antibody, V domains shown, Variant of AB-64.1) VH: QVQLVQSGAEVKKPGASVKISCKASGYTFTDYNLHWVRQAPGQGLEWIGFIYPSNGITGYAQKFQGRATLTVDNSASTAYMELSSLRSEDTAVYYCARSDVDYFDYWGQGTLLTVSS VL: DIVLTQSPDSLAVSLGERATINCRASQSVSTSTYSYMHWYQQKPGQPPKLLIKYASNLESGVPDRFSGSGSGTDFTLTISSLQAEDVAVYYCQHSWEIPLTFGQGTKLEIK | – | – | – | – | – | – | 0.836 | 37 | – |
| AB-14.5 (antibody, V domains shown) VH: QVQLVQSGAEVKKPGASVKVSCKASGYTFTDYNYHWVRQAPGQGLEWIGFIYPSNGITGYAQKFQGRVTMTVDTSTSTVYMELSSLRSEDTAVYYCARSDVDYFDYWGQGTLVTVSS VL: DIQMTQSPSSLSASVGDRVTITCRASQDVSTSTYSYMHWYQRKPGKAPKLLIKYASNLESGVPSRFSGSGSGTDFTLTISSLQPEDFATYYCQHSWEIPLTFGQGTKLEIK | 26.4 | 0.0342 | 13.7 | 0.212 | 0.0002 | 945000 | – | – | – |
| AB-64.1.1 (antibody, V domains shown, Variant of AB-64.1) VH: QVQLVQSGAEVKKPGASVKISCKASGYTFTDYNLHWVRQAPGQGLEWIGFIYPSNQITGYAQKFQGRATLTVDNSTSTAYMELSSLRSEDTAVYYCARSDVDYFDYWGQGTLLTVSS VL: DIVLTQSPDSLAVSLGERATINCRASQSVSTSTYSYMHWYQQKPGQPPKLLIKYASNLESGVPDRFSGSGSGTDFTLTISSLQAEDVAVYYCQHSWEIPLTFGQGTKLEIK | – | – | – | – | – | – | 0.429 | 37 | – |
| AB-64.1.5 (antibody, V domains shown, Variant of AB-64.1) VH: QVQLVQSGAEVKKPGASVKISCKASGYTFTDYNLHWVRQAPGQGLEWIGFIYPSNGITGYAQKFQGRATLTVDQSTSTAYMELSSLRSEDTAVYYCARSDVDYFDYWGQGTLLTVSS VL: DIVLTQSPDSLAVSLGERATINCRASQSVSTSTYSYMHWYQQKPGQPPKLLIKYASNLESGVPDRFSGSGSGTDFTLTISSLQAEDVAVYYCQHSWEIPLTFGQGTKLEIK | – | – | – | – | – | – | 0.697 | 37.3 | – |

Source: patent US20210139581A1 (Alector, published 2021)
